The target of experiment [1] is T1, soluble mouse BLyS (mouse, UniProt Q9WU72 127-309).
T1 construct: europium-labelled in DELFIA; also called mBLyS; mouse BAFF (BLyS)
Description: DELFIA competition, Eu-mBLyS binding to coated BR3. Here is the method: (§1) After 5× washing with 200 ul/well of DELFIA 1× wash solution (PE, Cat #4010-0010), plates were blocked with 3% BSA purified from trace heavy metal amounts (PE, Cat #CR84-100) for 3 hours with shaking at room temperature. Plates were washed again five times at 200 μl/well with DELFIA wash solution.
(§2) The final 3 wells across the plate served as controls (2 wells contained 2,000 pM mAbs for negative and background controls while the third contained no mAbs for positive control). […] After 18-24 hrs at 4° C., plates were read on PE EnVision plate reader with laser excitation, LANCE/DELFIA top mirror, and emission filter Eu-615 with a delay of 400 μs. Data were fit to four parameter (variable slope) inhibition dose response curve using GraphPad PRISM 5.0 software.

Experiment [2] deals with T1, soluble mouse BLyS. Description: DELFIA competition, Eu-mBLyS binding to coated BCMA. Here is the method: as §1, §2
Experiment [3] concerns the target T1, soluble mouse BLyS. Put plainly: DELFIA competition, Eu-mBLyS binding to coated TACI. The procedure:
as §1, §2

Experiment [4] has as its target T1, soluble mouse BLyS. Description: Biacore T100, binder captured by anti-human Fc, BLyS injected, 1:1 model. The procedure: (§3) A Series S CM5 Chip (GE Healthcare) was amine coupled with an anti-human Fc capturing antibody (GE Healthcare Human Fc Kit) to >10,000 RUs. Sample antibodies were diluted in 1×HBS-EP+ running buffer to 0.15 ug/mL and injected for 45 seconds at 10 uL/min. […] Biacore Evaluation software was used to fit the data to a 1:1 Binding Model.

In experiment [5] the target is T2, soluble human BLyS (human, UniProt Q9Y275 134-285).
T2 construct: also called hBLyS; human BAFF (BLyS)
Described as above. Here is the method:
as §3

In experiment [6] the target is T2, soluble human BLyS. Description: DELFIA competition, Eu-hBLyS binding to coated BR3. The procedure:
as §1, §2

Experiment [7] has as its target T1, soluble mouse BLyS. Description: Biacore, antibody captured on chip, BLyS injected, 1:1 model, 25 C. Here is the method:
(§4) Recombinant protein NG (Thermo Scientific, Cat #21186) was diluted to 100 μg/ml in 10 mM sodium acetate pH 4.0 and then immobilized on the surface of a pre-activated Series S CM5 Biacore chip (GE, Cat #BR-1005-34) using amine coupling. […] After the dissociation period, the chip was regenerated back to baseline by injecting 10 mM glycine pH 1.5 for 120 seconds over the four flow cells. […] The entire data set was fit to a 1:1 interaction model to give kₒₙ, koff, and Kd values. The assay was run at 25° C. in 1× biacore running buffer HBS-EP+ (GE, Cat #BR-1006-69).

For experiment [8], the target named is T2, soluble human BLyS. Described as above. Here is the method: as §4
For experiment [9], the target named is T2, soluble human BLyS. Put plainly: DELFIA competition, Eu-hBLyS binding to coated TACI. The procedure: as §1, §2
In experiment [10] the target is T3, mouse APRIL (mouse, UniProt Q9D777 96-241, limits assumed).
T3 construct: Bought recombinant protein; also called mAPRIL
T3 sequence (looked up): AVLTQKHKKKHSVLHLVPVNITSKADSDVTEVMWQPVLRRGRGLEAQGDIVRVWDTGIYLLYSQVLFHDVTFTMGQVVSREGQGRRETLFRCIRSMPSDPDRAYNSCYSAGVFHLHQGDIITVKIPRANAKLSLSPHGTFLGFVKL
Description: Biacore, antibody captured, APRIL injected. Here is the method:
(§5) Recombinant protein NG (Thermo Scientific, Cat #21186) was diluted to 100 μg/ml in 10 mM Sodium Acetate pH 4.0 and then immobilized on the surface of a pre-activated Series S CM4 Biacore chip (GE, Cat #BR-1005-34) using amine coupling. […] Binding response was measured as the difference in total RU increase during 300 second APRIL injection of each individual flow cell and the reference flow cell (e.g., Flow cell 2-1).
(In general: Surface plasmon resonance follows binding to a sensor surface in real time, without labels.)

In experiment [11] the target is T4, human APRIL (human, UniProt O75888 105-250, limits assumed).
T4 construct: Bought recombinant protein; also called hAPRIL
T4 sequence (looked up): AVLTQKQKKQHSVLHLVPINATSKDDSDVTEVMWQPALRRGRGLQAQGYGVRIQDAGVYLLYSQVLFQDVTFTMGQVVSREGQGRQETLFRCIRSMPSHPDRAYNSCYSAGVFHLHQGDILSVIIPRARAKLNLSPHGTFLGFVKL
Put plainly: Biacore, antibody captured, APRIL injected. The procedure: as §5

Experiment [12] deals with T2, soluble human BLyS. Description: DELFIA competition, Eu-hBLyS binding to coated BCMA. Here is the method:
as §1, §2

The target of experiment [13] is T5, soluble cynomolgus BLyS (cynomolgus, UniProt A0A2K5V2X4 134-285).
T5 construct: Soluble form; also called cyBLyS; Soluble cyBLyS
Put plainly: ELISA, soluble cyBLyS. For orientation: ELISA stands for enzyme-linked immunosorbent assay.

The target in experiment [14] is T2, soluble human BLyS. Put plainly: ELISA, soluble hBLyS.
Experiment [15] addresses T2, soluble human BLyS. Put plainly: blocking of biotinylated soluble hBLyS binding to immobilized mBR3.
The target of experiment [16] is T1, soluble mouse BLyS. Put plainly: Biacore.
Experiment [17] addresses T2, soluble human BLyS. Description: Biacore.
For experiment [18], the target named is T1, soluble mouse BLyS. Description: ELISA, soluble mBLyS.
The target of experiment [19] is T2, soluble human BLyS. Description: cell-based or functional assay.

The values that follow come from patent US20170101466A1 (published 2017).

B1: 8D12 IgG1 F243A/V264A double mutein expressed in Pichia pastoris (antibody, V domains shown)
VH: QVQLVQSGAEVKKPGASVKVSCKASGYTFTSYAMHWVRQAPGQRLEWMGWINAGNGNTKYSQKFQGRVTITRDTSASTAYMELSSLRSEDTAVYYCARAYYDILTGYSVYGMDVWGQGTTVTVSS
VL: EIVLTQSPATLSLSPGERATLSCRANESVGNYLAWYQQKPGQAPRLLIYGASRRATGIPDRFSGSGSGTDFTLTISRLEPEDFAVYYCQQYGSSLLTFGGGTKVEIKR
notes: IgG1 F243A/V264A (EU) double mutein, alpha-2,6-sialylated, from glycoengineered Pichia pastoris; also called 8D12-DM; 8D12-DM (Pichia)
With B1, the IC50 (in general, the midpoint of a concentration-inhibition curve) in experiment [1] was greater than 2 nM; in [2], greater than 2 nM; in experiment [3] it was greater than 2 nM; in experiment [6] it was 0.101 nM; in experiment [9], less than 0.0003 nM; in experiment [12], 1.28 nM. Besides, the Kd (as a rule, the equilibrium constant for the complex coming apart) amounted to 0.134 nM in [4], 0.049 nM in experiment [5], 0.099 nM in [7] and 0.138 nM in experiment [8]. Besides, the koff (in general, the rate constant with which the complex falls apart) in experiment [4] was found to be 0.000196 s⁻¹; in [5], 5.4e-05 s⁻¹; in experiment [7], 5.7e-05 s⁻¹; in experiment [8], 3.5e-05 s⁻¹. Moreover, the kon (commonly the rate constant with which the complex forms) amounted to 1.46e+06 M⁻¹ s⁻¹ in experiment [4], 1.11e+06 M⁻¹ s⁻¹ in [5], 580000 M⁻¹ s⁻¹ in experiment [7] and 260000 M⁻¹ s⁻¹ in experiment [8]. The binding result in experiment [10] and in [11] was “no binding (tested: 50 nM)” in each case.

B2: 8D12 IgG expressed in HEK293 cells (antibody, V domains shown)
VH: B1 VH
VL: B1 VL
notes: IgG from HEK293-FreeStyle cells; also called 8D12 (293)
For B2, the IC50 is greater than 2 nM in experiment [1]; greater than 2 nM in experiment [2]; 0.08 nM in [13]; greater than 2 nM in experiment [3]; 0.13 nM in [14]; 10 nM in [15]. The half-inhibitory concentration (IC50) is 0.16 nM in experiment [18], 0.0622 nM in experiment [6], less than 0.0003 nM in experiment [9] and 0.63 nM in experiment [12]. For the same molecule, the results for the Kd in [16] and in experiment [17] were 0.028 nM and 0.66 nM, respectively. Further, the binding result in experiment [10] and in experiment [11] was “no binding (tested: 50 nM)” in each case.

B3: 6C10 IgG expressed in HEK293 cells (antibody, V domains shown)
VH: EVQLVQSGAEVKKPGASVKVSCKASGYTFTSYGISWVRQAPGQGLEWMGWISAYNGNTNYAQKLQGRVTMTTDTSTSTAYMELRSLRSDDTAVYYCARTYYDILTGYYYYYGMDVWGQGTTVTVSS
VL: EIVLTQSPGTLSLSPGERAMLSCRASQSVGNYLAWYQQKPGQAPRLLIYDASNRATGIPARFSGSGSGTDFTLTINSLEPEDFAVYYCQQRSNWPLTFGGGTKVEIKR
notes: IgG from HEK293-FreeStyle cells; also called 6C10 (293)
Regarding B3, the concentration for half-maximal inhibition (IC50) in experiment [1] was 0.784 nM; in experiment [2] it was 0.098 nM; in experiment [13] it was 0.1 nM; in [3], 0.679 nM; in experiment [14] it was 0.12 nM; in experiment [15], 0.33 nM. Moreover, the IC50 in experiment [18] was 0.05 nM; in experiment [6], 0.121 nM; in experiment [9] it was 0.00067 nM; in experiment [12], 0.0106 nM. Moreover, the Kd in [16] is 0.0216 nM; in [17], 0.51 nM; in experiment [7], 0.334 nM; in experiment [8] it was 0.434 nM. For the same molecule, the off-rate constant (koff) in experiment [7] worked out at 6.7e-05 s⁻¹; in experiment [8], 5e-05 s⁻¹. Besides, the kon in experiment [7] turned out to be 200000 M⁻¹ s⁻¹; in experiment [8], 120000 M⁻¹ s⁻¹. Besides, the binding result in experiment [10] and in experiment [11] was “no binding (tested: 50 nM)” each time.

B4: 8A12 IgG expressed in HEK293 cells (antibody, V domains shown)
VH: QVQLVQSGGGLVQPGGSLRLSCAASGFTFSSYAMSWVRQAPGKGLEWVSAISGSGGSTYYADSVKGRFTISRDNSKNTLYLQMNSLRAEDTAVYYCAREGQGYDILTGYYTRGYYFDYWGQGTLVTVSS
VL: QSALTQPASVSGSPGQSITISCTGTSSDVGGYNYVSWYQQLPGKAPKLMIYEVSKRPSGVPDRFSGSKSGNTASLTISGLQAEDEADYYCSSYAGSSSWVFGGGTKLTVLG
notes: IgG from HEK293-FreeStyle cells
With B4, the IC50 in experiment [13] came to 0.32 nM; in experiment [14] it was 16 nM; in experiment [15] it was 2.97 nM; in [18], 0.05 nM. Besides, the Kd in experiment [16] is 0.0224 nM; in [17], 4.26 nM.

B5: 9F8 IgG expressed in HEK293 cells (antibody, V domains shown)
VH: QVQLQQSGAEVKKPGASVKVSCKASGYTFTSYYMHWVRQAPGQGLEWMGWINAGNGNTKYSQKFQGRVTITRDTSASTAYMELSSLRSEDTAVYYCARDNLSYDILTGYSFGGWFDPWGQGTLVTVSS
VL: QSALTQPASVSGSPGQSITISCTGTSSDIGRYNYVSWYQQRPGRAPKVIIYDVSSRPSGVSKRFSASKSGNTASLTISGLQAEDEAVYYCSSYTRITTLYVFGPGTKVTVLG
notes: as for B4
For the molecule B5, the IC50 in experiment [13] amounted to 0.07 nM; in experiment [14], 0.15 nM; in experiment [15], 5.31 nM; in [18] it was 0.07 nM. The Kd in experiment [16] worked out at 0.0456 nM; in [17], 1.1 nM.

B6: belimumab (antibody, V domains shown)
VH: QVQLQQSGAEVKKPGSSVRVSCKASGGTFNNNAINWVRQAPGQGLEWMGGIIPMFGTAKYSQNFQGRVAITADESTGTASMELSSLRSEDTAVYYCARSRDLLLFPHHALSPWGRGTMVTVSS
VL: SSELTQDPAVSVALGQTVRVTCQGDSLRSYYASWYQQKPGQAPVLVIYGKNNRPSGIPDRFSGSSSGNTASLTITGAQAEDEADYYCSSRDSSGNHWVFGGGTELTVLG
Regarding B6, the IC50 in [1] was greater than 2 nM. Further, in [4], the Kd was determined as 0.0635 nM, the off-rate constant (koff) came to 0.000125 s⁻¹ and the kon worked out at 1.98e+06 M⁻¹ s⁻¹. In experiment [5], this molecule displayed an equilibrium dissociation constant (Kd) of 0.167 nM, a koff of 8.55e-05 s⁻¹ and a kon of 506000 M⁻¹ s⁻¹. Moreover, in experiment [19], the “IC50 hBLyS stimulated, mouse splenic B-cell proliferation” value came out at 0.018 µg/mL.
